These results are taken from US20210040161A1 (CALIFORNIA INSTITUTE OF TECHNOLOGY, published 2021).

Numbering of substitutions follows the chain as printed. Numbers in names are those of the source.

The target of data set [1] is T1, TlpA_CC R179E (G1B).
T1 construct: Purified coiled-coil domain of TlpA used for CD; The entry already holds the initiating Met, the R179E mutation (numbered on full-length TlpA), C-terminal Leu-Gly and a His6 tag; also called TlpA-G1B (R179E); R179E variant
T1 chain: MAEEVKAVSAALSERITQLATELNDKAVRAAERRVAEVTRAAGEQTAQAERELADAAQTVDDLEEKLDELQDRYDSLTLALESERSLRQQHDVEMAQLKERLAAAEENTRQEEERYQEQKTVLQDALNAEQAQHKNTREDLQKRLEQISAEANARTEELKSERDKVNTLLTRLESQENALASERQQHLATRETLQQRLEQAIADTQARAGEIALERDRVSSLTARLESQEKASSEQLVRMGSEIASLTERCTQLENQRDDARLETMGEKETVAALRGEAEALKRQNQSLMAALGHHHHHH
In words: CD melting curve at 222 nm, purified coiled-coil domains, 3 uM in PBS.

Data set [2] deals with the molecule itself. As to the kind of experiment: CuCl2 crosslinking in E. coli lysate, SDS-PAGE, anti-HA Western; full-length homodimer band.

B1: TlpA_CC E180R (G1A) (designed binder)
chain: T1 chain with E112R, E113R
notes: Purified coiled-coil domain of TlpA used for CD; The entry already holds the initiating Met, the E180R mutation (numbered on full-length TlpA), C-terminal Leu-Gly and a His6 tag; also called TlpA-G1A (E180R); E180R variant
Consider B1, for which the binding result in data set [1] is recorded as “binds”.

B2: wild-type TlpA, full length, C-terminal HA tag (crosslinking construct) (other)
chain: MRPATYEPEQIIEAGLALQAEGRNITGFALRNQVGGGNPTRLRQIWDEYQASQSTVVTEPVAELPVEVAEEVKAVSAALSERITQLATELNDKAVRAAERRVAEVTRAAGEQTAQAERELADAAQTVDDLEEKLDELQDRYDSLTLALESERSLRQQHDVEMAQLKERLAAAEENTRQREERYQEQKTVLQDALNAEQAQHKNTREDLQKRLEQISAEANARTEELKSERDKVNTLLTRLESQENALASERQQHLATRETLQQRLEQAIADTQARAGEIALERDRVSSLTARLESQEKASSEQLVRMGSEIASLTERCTQLENQRDDARLETMGEKETVAALRGEAEALKRQNQSLMAALSGNKQTGGQNA
notes: also called wt; not shown: C-terminal HA tag
On to B2, for which the binding result in data set [2] is “binds”.
